Data reported in patent US20250340902A1, “GENE THERAPY FOR BVES-RELATED DISORDERS” (OHIO STATE INNOVATION FOUNDATION, priority 2022, published 2025).

Key:
[1] = molecular target: Tripartite motif-containing protein 72 (Mus musculus) (UniProt Q1XH17); experiment: anti-HA co-IP from muscle, MS; CTRL 2
[2] = molecular target: Very-long-chain enoyl-CoA reductase (Mus musculus) (UniProt Q9CY27); experiment: anti-HA co-IP from muscle, MS; CTRL 2
[3] = molecular target: PDZ and LIM domain protein 5 (Mus musculus) (UniProt Q8CI51); experiment: anti-HA co-IP from muscle, MS; CTRL 2
[4] = molecular target: Spectrin beta chain, erythrocytic (Mus musculus) (UniProt P15508); experiment: anti-HA co-IP from muscle, MS; CTRL 2
[5] = molecular target: Serine/arginine repetitive matrix protein 2 (Mus musculus) (UniProt Q8BTI8); experiment: anti-HA co-IP from muscle, MS; CTRL 2
[6] = molecular target: Phosphorylase b kinase gamma catalytic chain, skeletal muscle/heart isoform (Mus musculus) (UniProt P07934); experiment: anti-HA co-IP from muscle, MS; CTRL 2
Phosphorylase b kinase gamma catalytic chain, skeletal muscle/heart isoform (Mus musculus), sequence (P07934 whole entry, canonical isoform): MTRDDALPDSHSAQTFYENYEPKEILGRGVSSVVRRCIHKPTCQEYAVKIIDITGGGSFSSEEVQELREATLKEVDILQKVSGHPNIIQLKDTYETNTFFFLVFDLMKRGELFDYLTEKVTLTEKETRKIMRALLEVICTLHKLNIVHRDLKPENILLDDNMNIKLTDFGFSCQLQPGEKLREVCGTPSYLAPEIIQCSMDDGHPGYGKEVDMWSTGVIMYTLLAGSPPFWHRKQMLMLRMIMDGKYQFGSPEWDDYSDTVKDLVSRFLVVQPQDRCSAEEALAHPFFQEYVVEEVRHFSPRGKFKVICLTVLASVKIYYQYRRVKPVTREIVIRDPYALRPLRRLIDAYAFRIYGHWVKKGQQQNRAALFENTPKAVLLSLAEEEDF

[7] = molecular target: T-complex protein 1 subunit beta (Mus musculus) (UniProt P80314); experiment: anti-HA co-IP from muscle, MS; CTRL 2
T-complex protein 1 subunit beta (Mus musculus), sequence (P80314 2-535 limits assumed, one chain of several): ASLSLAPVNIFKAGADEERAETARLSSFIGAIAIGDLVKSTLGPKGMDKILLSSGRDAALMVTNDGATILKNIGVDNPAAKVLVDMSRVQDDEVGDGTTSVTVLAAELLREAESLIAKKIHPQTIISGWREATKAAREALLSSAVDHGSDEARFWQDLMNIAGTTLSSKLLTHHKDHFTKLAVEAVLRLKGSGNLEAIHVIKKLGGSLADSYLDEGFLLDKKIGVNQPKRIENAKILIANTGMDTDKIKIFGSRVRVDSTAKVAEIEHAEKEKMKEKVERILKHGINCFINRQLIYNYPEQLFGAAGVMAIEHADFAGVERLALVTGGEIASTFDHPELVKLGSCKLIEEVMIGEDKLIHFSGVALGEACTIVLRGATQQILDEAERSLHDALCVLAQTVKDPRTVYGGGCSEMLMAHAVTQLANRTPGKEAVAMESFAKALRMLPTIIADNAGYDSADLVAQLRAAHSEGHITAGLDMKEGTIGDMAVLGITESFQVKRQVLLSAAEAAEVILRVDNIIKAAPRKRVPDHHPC

[8] = molecular target: Voltage-dependent L-type calcium channel subunit beta-1 (Mus musculus) (UniProt Q8R3Z5); experiment: anti-HA co-IP from muscle, MS; CTRL 2
[9] = molecular target: Poly(rC)-binding protein 2 (Mus musculus) (UniProt Q61990); experiment: anti-HA co-IP from muscle, MS; CTRL 2
[10] = molecular target: Succinate--CoA ligase [ADP-forming] subunit beta, mitochondrial (Mus musculus) (UniProt Q9Z2I9); experiment: anti-HA co-IP from muscle, MS; CTRL 2
[11] = molecular target: Trimeric intracellular cation channel type A (Mus musculus) (UniProt Q3TMP8); experiment: anti-HA co-IP from muscle, MS; CTRL 2
[12] = molecular target: Calcium/calmodulin-dependent protein kinase type II subunit alpha (Mus musculus) (UniProt P11798); experiment: anti-HA co-IP from muscle, MS; CTRL 2
[13] = molecular target: Caveolae-associated protein 1 (Mus musculus) (UniProt O54724); experiment: anti-HA co-IP from muscle, MS; CTRL 2
Nidogen-2 (Mus musculus) = Nidogen-2 (Mus musculus) (UniProt O88322); experiment: anti-HA co-IP from muscle, MS; CTRL 3
[14] = molecular target: Transcription elongation factor A protein 3 (Mus musculus) (UniProt P23881); experiment: anti-HA co-IP from muscle, MS; CTRL 3
Transcription elongation factor A protein 3 (Mus musculus), sequence (P23881 whole entry): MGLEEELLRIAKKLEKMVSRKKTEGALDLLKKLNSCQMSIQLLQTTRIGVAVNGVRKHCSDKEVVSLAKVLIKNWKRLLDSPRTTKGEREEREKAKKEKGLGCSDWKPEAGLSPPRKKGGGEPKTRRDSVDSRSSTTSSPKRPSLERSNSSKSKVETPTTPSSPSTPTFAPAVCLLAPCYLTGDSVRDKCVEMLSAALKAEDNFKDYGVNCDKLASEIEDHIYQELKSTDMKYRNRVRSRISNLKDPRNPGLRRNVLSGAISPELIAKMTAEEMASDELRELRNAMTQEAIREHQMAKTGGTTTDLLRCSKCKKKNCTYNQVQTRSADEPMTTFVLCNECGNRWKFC

[15] = molecular target: Myosin light chain kinase 2, skeletal/cardiac muscle (Mus musculus) (UniProt Q8VCR8); experiment: anti-HA co-IP from muscle, MS; CTRL 3
Myosin light chain kinase 2, skeletal/cardiac muscle (Mus musculus), sequence (Q8VCR8 whole entry): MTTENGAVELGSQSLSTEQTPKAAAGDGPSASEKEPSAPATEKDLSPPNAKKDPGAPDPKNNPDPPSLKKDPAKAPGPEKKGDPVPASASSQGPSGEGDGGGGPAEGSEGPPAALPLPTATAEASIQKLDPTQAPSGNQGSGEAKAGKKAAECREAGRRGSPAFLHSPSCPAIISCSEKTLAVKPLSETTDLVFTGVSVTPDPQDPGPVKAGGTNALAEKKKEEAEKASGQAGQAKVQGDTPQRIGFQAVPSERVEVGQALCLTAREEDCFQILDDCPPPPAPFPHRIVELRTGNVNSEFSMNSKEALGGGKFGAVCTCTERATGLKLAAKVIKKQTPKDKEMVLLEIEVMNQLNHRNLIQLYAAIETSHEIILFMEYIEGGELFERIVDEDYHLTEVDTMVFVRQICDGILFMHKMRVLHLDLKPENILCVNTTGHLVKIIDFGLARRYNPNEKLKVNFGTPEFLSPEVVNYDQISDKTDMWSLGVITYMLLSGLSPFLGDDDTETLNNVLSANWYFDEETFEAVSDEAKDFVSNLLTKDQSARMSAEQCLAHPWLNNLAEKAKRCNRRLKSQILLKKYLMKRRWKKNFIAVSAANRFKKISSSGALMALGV

[16] = molecular target: Cytoplasmic dynein 1 heavy chain 1 (Mus musculus) (UniProt Q9JHU4); experiment: anti-HA co-IP from muscle, MS; CTRL 3
[17] = molecular target: Perilipin-4 (Mus musculus) (UniProt O88492); experiment: anti-HA co-IP from muscle, MS; CTRL 3
Perilipin-4 (Mus musculus), sequence (O88492 whole entry): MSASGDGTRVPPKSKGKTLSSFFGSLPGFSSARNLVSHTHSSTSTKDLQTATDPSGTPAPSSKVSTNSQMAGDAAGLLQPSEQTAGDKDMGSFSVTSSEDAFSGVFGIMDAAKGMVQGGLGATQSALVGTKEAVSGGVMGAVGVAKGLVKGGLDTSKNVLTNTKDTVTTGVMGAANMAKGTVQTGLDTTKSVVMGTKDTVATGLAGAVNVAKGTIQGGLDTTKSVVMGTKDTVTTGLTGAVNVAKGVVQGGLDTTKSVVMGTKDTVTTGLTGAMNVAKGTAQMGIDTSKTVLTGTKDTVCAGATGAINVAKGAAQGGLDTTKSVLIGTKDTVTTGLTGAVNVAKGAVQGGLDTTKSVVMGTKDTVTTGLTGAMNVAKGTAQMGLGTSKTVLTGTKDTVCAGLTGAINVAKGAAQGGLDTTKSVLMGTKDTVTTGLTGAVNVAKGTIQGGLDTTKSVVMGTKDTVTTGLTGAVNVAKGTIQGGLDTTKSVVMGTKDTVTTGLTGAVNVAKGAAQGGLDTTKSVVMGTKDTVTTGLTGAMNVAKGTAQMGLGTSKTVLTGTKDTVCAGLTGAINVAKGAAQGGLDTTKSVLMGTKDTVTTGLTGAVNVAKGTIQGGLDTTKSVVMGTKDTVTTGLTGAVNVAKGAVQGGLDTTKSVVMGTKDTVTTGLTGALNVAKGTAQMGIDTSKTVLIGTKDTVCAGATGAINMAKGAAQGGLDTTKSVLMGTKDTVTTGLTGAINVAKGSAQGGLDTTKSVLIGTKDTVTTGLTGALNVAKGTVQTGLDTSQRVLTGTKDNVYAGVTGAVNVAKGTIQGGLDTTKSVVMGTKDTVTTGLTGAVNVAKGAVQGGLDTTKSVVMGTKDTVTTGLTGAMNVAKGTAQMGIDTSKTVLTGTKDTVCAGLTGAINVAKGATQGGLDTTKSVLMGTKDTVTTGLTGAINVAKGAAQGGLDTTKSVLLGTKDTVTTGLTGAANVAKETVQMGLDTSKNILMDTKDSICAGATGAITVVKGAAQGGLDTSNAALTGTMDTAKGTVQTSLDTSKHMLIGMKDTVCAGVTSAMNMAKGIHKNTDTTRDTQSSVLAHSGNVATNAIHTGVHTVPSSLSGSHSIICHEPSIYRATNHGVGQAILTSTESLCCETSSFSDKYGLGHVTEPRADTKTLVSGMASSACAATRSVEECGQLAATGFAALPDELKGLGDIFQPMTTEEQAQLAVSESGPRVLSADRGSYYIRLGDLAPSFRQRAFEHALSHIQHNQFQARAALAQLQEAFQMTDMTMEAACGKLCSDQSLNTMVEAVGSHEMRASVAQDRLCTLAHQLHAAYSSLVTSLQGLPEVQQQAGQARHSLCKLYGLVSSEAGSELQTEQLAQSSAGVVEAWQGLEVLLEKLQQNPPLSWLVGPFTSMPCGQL

[18] = molecular target: 3-ketoacyl-CoA thiolase, mitochondrial (Mus musculus) (UniProt Q8BWT1); experiment: anti-HA co-IP from muscle, MS; CTRL 3
3-ketoacyl-CoA thiolase, mitochondrial (Mus musculus), sequence (Q8BWT1 whole entry): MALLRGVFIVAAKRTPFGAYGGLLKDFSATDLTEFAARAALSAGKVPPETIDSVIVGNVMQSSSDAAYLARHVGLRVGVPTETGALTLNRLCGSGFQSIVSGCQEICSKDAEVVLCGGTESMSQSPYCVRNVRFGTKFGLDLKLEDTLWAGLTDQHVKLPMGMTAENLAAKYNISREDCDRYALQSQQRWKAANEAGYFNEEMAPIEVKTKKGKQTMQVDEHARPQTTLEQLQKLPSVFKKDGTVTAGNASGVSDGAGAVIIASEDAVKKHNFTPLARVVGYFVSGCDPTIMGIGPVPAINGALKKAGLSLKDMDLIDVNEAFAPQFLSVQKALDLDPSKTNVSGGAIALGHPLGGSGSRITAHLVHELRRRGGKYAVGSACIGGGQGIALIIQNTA

[19] = molecular target: Dystrophin (Mus musculus) (UniProt P11531); experiment: anti-HA co-IP from muscle, MS; CTRL 6
[20] = molecular target: Sodium/potassium-transporting ATPase subunit alpha-2 (Mus musculus) (UniProt Q6PIE5); experiment: anti-HA co-IP from muscle, MS; CTRL 6
Vinculin (Mus musculus) = Vinculin (Mus musculus) (UniProt Q64727); experiment: anti-HA co-IP from muscle, MS; CTRL 1
[21] = molecular target: Caveolae-associated protein 3 (Mus musculus) (UniProt Q91VJ2); experiment: anti-HA co-IP from muscle, MS; CTRL 1
Caveolae-associated protein 3 (Mus musculus), sequence (Q91VJ2 whole entry): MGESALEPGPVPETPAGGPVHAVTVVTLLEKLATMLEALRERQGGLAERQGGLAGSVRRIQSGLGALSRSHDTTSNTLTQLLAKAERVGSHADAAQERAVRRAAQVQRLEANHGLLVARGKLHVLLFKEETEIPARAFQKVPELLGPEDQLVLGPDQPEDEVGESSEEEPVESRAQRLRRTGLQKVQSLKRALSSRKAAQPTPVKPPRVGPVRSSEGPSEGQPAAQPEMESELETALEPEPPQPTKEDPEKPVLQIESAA

[22] = molecular target: Caveolae-associated protein 2 (Mus musculus) (UniProt Q63918); experiment: anti-HA co-IP from muscle, MS; CTRL 1
[23] = molecular target: Collagen alpha-2(IV) chain (Mus musculus) (UniProt P08122); experiment: anti-HA co-IP from muscle, MS; CTRL 1

Tripartite motif-containing protein 72 (Mus musculus), sequence (Q1XH17 whole entry): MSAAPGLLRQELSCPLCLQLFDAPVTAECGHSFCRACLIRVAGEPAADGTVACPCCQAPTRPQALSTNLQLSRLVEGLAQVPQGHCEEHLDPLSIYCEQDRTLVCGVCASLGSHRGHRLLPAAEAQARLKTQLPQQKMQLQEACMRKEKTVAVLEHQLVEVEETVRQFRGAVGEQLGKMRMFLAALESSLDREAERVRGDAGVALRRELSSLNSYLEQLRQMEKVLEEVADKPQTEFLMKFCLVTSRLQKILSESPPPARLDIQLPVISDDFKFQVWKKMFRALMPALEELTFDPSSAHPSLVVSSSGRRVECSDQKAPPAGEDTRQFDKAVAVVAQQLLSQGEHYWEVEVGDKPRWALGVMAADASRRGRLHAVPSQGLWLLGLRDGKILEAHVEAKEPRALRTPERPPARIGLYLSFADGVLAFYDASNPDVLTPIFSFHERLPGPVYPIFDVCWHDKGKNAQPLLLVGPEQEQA
Very-long-chain enoyl-CoA reductase (Mus musculus), sequence (Q9CY27 whole entry, the tested form may be a part): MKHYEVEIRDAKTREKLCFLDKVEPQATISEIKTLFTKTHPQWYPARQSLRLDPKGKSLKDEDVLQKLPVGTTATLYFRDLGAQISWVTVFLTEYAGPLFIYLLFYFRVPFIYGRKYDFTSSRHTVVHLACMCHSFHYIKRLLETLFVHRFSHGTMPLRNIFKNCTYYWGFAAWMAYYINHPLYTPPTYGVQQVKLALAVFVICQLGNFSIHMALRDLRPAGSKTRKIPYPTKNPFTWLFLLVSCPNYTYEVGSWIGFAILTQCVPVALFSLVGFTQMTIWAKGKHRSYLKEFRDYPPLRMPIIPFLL

AAV9-BVES-HA (IP-MS count) [1]: 6
AAV9-BVES-HA (IP-MS count) [2]: 9
AAV9-BVES-HA (IP-MS count) [3]: 7
AAV9-BVES-HA (IP-MS count) [4]: 41
AAV9-BVES-HA (IP-MS count) [5]: 11
AAV9-BVES-HA (IP-MS count) [6]: 6
AAV9-BVES-HA (IP-MS count) [7]: 6
AAV9-BVES-HA (IP-MS count) [8]: 6
AAV9-BVES-HA (IP-MS count) [9]: 6
AAV9-BVES-HA (IP-MS count) [10]: 8
AAV9-BVES-HA (IP-MS count) [11]: 7
AAV9-BVES-HA (IP-MS count) [12]: 11
AAV9-BVES-HA (IP-MS count) [13]: 19
AAV9-BVES-HA (IP-MS count) (Nidogen-2 (Mus musculus)): 12
AAV9-BVES-HA (IP-MS count) [14]: 12
AAV9-BVES-HA (IP-MS count) [15]: 9
AAV9-BVES-HA (IP-MS count) [16]: 12
AAV9-BVES-HA (IP-MS count) [17]: 11
AAV9-BVES-HA (IP-MS count) [18]: 9
AAV9-BVES-HA (IP-MS count) [19]: 77
AAV9-BVES-HA (IP-MS count) [20]: 41
AAV9-BVES-HA (IP-MS count) (Vinculin (Mus musculus)): 5
AAV9-BVES-HA (IP-MS count) [21]: 11
AAV9-BVES-HA (IP-MS count) [22]: 12
AAV9-BVES-HA (IP-MS count) [23]: 5
Substance: human BVES fused with 3xHA tag (from UniProt Q8NE79 1-360)
